Assay results published in patent US11946041B2, “Modification of polypeptides” (BicycleRD Limited, priority 2017, dated 2024).
“Also recorded” adds a separate entry of the source.

Legend:
[1] = biological target: T1, MT1-MMP hemopexin domain (Homo sapiens, UniProt P50281); assay: MMP-14 FP competition binding between peptide families
T1 construct: Human MMP-14 PEX protein at 71.1 μM monomer
Description: FIG. 6 illustrates an analysis of MT-MMP binding ligands. A: MMP-14 FP direct binding in cell-based selections; 1 nM tracer, 60 min data. 17-98-Sar6-k(FI)-and-17-99-Sar6-k(FI)-bind with Kds of 354 nM and 501 nM respectively. B: competition binding with several combinations of peptides, both fluorescein-labelled or native, from soluble and cell based selections.
FIG. 7 illustrates the competition profile between peptide ligands isolated in this example.
• Human MMP-14 PEX protein at 71.1 μM monomer (previously 77.1 μM) (T-017-011), stored in fridge (4/7/14) • Peptides as described in Results section
Method: • Prepare assay buffer: 20 mM HEPES, 150 mM NaCl, 1 mM CaCl2), 0.1% Tween20 (pH 7.6). Buffer was filtered before use to remove precipitate. • Method according to Example 3 with tracer at 1 nM and MMP-14 PEX at concentrations detailed in the graphs • 60 min data analysed • Results are shown in FIG. 6.

[2] = biological target: T2, EphA3 (Homo sapiens, UniProt P29320); assay: EphA3 FP competition assay with 67-10-05 as labelled tracer; format: binding; details: tracer 67-10-05
T2 construct: So far all selections have been performed with soluble EphA3 ecto domain
T2 sequence (P29320 21-541 limits assumed): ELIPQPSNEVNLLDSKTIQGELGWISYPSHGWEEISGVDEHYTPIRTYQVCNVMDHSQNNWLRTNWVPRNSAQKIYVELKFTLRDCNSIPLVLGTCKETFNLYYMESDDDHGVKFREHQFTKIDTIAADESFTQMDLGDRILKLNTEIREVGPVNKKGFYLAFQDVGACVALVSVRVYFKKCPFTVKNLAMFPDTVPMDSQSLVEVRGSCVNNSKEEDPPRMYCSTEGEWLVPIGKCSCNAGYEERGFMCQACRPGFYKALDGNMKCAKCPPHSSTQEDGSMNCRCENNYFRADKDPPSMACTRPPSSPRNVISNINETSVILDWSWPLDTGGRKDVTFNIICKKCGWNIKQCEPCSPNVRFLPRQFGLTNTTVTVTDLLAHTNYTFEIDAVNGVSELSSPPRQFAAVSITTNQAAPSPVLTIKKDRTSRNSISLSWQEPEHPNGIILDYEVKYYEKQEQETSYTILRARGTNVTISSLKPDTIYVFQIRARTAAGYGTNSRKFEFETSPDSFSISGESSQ

[3] = biological target: T3, CCR4 (Homo sapiens, UniProt P51679); assay: PathHunter eXpress CCR4 CHO-K1 β-Arrestin GPCR Assay, antagonist format with CCL22; format: cell-based
T3 construct: host or cells: CHO-K1
T3 sequence (P51679 1-360): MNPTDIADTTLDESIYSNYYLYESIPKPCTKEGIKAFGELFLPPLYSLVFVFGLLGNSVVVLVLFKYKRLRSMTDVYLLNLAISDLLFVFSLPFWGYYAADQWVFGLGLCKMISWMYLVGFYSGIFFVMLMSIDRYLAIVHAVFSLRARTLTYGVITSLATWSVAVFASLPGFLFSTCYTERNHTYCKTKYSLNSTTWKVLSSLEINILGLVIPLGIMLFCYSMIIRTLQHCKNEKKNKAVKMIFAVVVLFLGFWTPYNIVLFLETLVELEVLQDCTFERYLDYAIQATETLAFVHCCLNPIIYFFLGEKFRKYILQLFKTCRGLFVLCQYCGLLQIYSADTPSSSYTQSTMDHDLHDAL
Description: (§1) The aim of the present experiment was to analyze if if these peptides are functional using a Discoverx Assay, the Beta-Arrestin recruitment assay, to identify agonism or antagonism in the selected peptides.
(§2) Standard protocols used: • PathHunter® eXpress CCR4 CHO-K1 β-Arrestin GPCR Assay. 100 dp (1×96-well)
(§3) The experiment was carried using the manufacturer instructions.
We therefore used the assay in an antagonist format, using 10 nM CCL22.
We repeated this experiment lowering the concentration of CCL22 from 10 nM to 1 nM to show a full inhibition curve.

[4] = biological target: T3, CCR4; assay: PathHunter eXpress CCR4 CHO-K1 β-Arrestin GPCR Assay, agonist format; format: cell-based
Description: as §1, §2, §3
The concentration was increased to test for response at high concentration.

CYNEFGCEDFYDIC [Peptide 17-69-07]
binding site on MT1-MMP [1]: binds to a neutral binding site; also recorded: binding site is distinct from the 17-88/17-98 binding site | competition with other peptide families [1]: do not cross compete

CIPDPYQCVILRQPC [67-10-05-N005, EphA3 peptide ligand, 6X6 loops, from soluble selection; used as labelled tracer]
Ki [2]: 5.39 nM

CRASAGQCNPDPKLC [67-24-00-N001, EphA3 peptide from cell-based screening, 6X6 loops]
Ki (nM) [2]: No binding

CPYSWETCLFGDYRC [Peptide 17-88, peptide ligand family from soluble selections against MT1-MMP hemopexin domain]
binding site on MT1-MMP [1]: binds to the collagen binding site | competition with other peptide families [1]: do not cross compete

CQNRFPNCPINGFFC [Peptide 17-99]
competition with other peptide families [1]: competes with all the other families

ACRAVHSLRCLTTCA [24-17-00-N001, bicyclic peptide ligand, TATA scaffold, from CCR4 cell-based selection]
Raw Data ([3]; 1 nM CCL22, 0.001 uM): 272073 | Raw Data ([3]; 1 nM CCL22, 0.003 uM): 292052 | Raw Data ([3]; 1 nM CCL22, 0.008 uM): 301675 | Raw Data ([3]; 1 nM CCL22, 0.023 uM): 285103 | Raw Data ([3]; 1 nM CCL22, 0.1 uM): 296795 | Raw Data ([3]; 1 nM CCL22, 0.2 uM): 246983 | Raw Data ([3]; 1 nM CCL22, 0.6 uM): 252179 | Raw Data ([3]; 1 nM CCL22, 1.9 uM): 240952 | Raw Data ([3]; 1 nM CCL22, 5.6 uM): 197381 | Raw Data ([3]; 1 nM CCL22, 16.7 uM): 125610 | Raw Data ([3]; 1 nM CCL22, 50 uM): 114156 | Raw Data ([3]; 10 nM CCL22, 0.001 uM): 164018 | Raw Data ([3]; 10 nM CCL22, 0.003 uM): 174559 | Raw Data ([3]; 10 nM CCL22, 0.008 uM): 143078 | Raw Data ([3]; 10 nM CCL22, 0.023 uM): 164921 | Raw Data ([3]; 10 nM CCL22, 0.1 uM): 153182 | Raw Data ([3]; 10 nM CCL22, 0.2 uM): 151630 | Raw Data ([3]; 10 nM CCL22, 0.6 uM): 146982 | Raw Data ([3]; 10 nM CCL22, 1.9 uM): 132070 | Raw Data ([3]; 10 nM CCL22, 5.6 uM): 148721 | Raw Data ([3]; 10 nM CCL22, 16.7 uM): 140316 | Raw Data ([3]; 10 nM CCL22, 50 uM): 153988 | Raw Data ([4]; 0.006 nM): 27836 | Raw Data ([4]; 0.02 nM): 26107 | Raw Data ([4]; 0.06 nM): 29865 | Raw Data ([4]; 0.17 nM): 29746 | Raw Data ([4]; 0.51 nM): 27025 | Raw Data ([4]; 1.5 nM): 27917 | Raw Data ([4]; 4.6 nM): 25017 | Raw Data ([4]; 13.9 nM): 23972 | Raw Data ([4]; 41.7 nM): 23928 | Raw Data ([4]; 125 nM): 23999 | Raw Data ([4]; 375 nM): 22611 | Raw Data ([4]; high concentration, 0.001 uM): 11608 | Raw Data ([4]; high concentration, 0.003 uM): 11809 | Raw Data ([4]; high concentration, 0.008 uM): 13248 | Raw Data ([4]; high concentration, 0.023 uM): 13984 | Raw Data ([4]; high concentration, 0.1 uM): 14856 | Raw Data ([4]; high concentration, 0.2 uM): 15518 | Raw Data ([4]; high concentration, 0.6 uM): 15965 | Raw Data ([4]; high concentration, 1.9 uM): 17244 | Raw Data ([4]; high concentration, 5.6 uM): 17261 | Raw Data ([4]; high concentration, 16.7 uM): 16709 | Raw Data ([4]; high concentration, 50 uM): 16749

CKMESWECLMLHPKC [Peptide 17-98]
binding site on MT1-MMP [1]: binds to the same site as the 17-88 family (the collagen binding site)

B1: CCL22: the natural ligand of CCR4; CCL22 Discoverx (Cat no #92-1006) (protein, UniProt O00626 25-93, looked up)
C-C motif chemokine 22: GPYGANMEDSVCCRDYVRYRLPLRVVKHFYWTSDSCPRPGVVLLTFRDKEICADPRVPWVKMILNKLSQ
Raw Data ([3]; 1 nM CCL22, 0.001 uM): 189754 | Raw Data ([3]; 1 nM CCL22, 0.003 uM): 206356 | Raw Data ([3]; 1 nM CCL22, 0.008 uM): 204398 | Raw Data ([3]; 1 nM CCL22, 0.023 uM): 218834 | Raw Data ([3]; 1 nM CCL22, 0.1 uM): 225758 | Raw Data ([3]; 1 nM CCL22, 0.2 uM): 245828 | Raw Data ([3]; 1 nM CCL22, 0.6 uM): 321207 | Raw Data ([3]; 1 nM CCL22, 1.9 uM): 425613 | Raw Data ([3]; 1 nM CCL22, 5.6 uM): 422771 | Raw Data ([3]; 1 nM CCL22, 16.7 uM): 433500 | Raw Data ([3]; 1 nM CCL22, 50 uM): 508067 | Raw Data ([3]; 10 nM CCL22, 0.001 uM): 178148 | Raw Data ([3]; 10 nM CCL22, 0.003 uM): 150444 | Raw Data ([3]; 10 nM CCL22, 0.008 uM): 136281 | Raw Data ([3]; 10 nM CCL22, 0.023 uM): 131693 | Raw Data ([3]; 10 nM CCL22, 0.1 uM): 151947 | Raw Data ([3]; 10 nM CCL22, 0.2 uM): 169306 | Raw Data ([3]; 10 nM CCL22, 0.6 uM): 173881 | Raw Data ([3]; 10 nM CCL22, 1.9 uM): 175875 | Raw Data ([3]; 10 nM CCL22, 5.6 uM): 212050 | Raw Data ([3]; 10 nM CCL22, 16.7 uM): 245795 | Raw Data ([3]; 10 nM CCL22, 50 uM): 223579 | EC50 [4]: 1.65 nM | Raw Data ([4]; 0.006 nM): 37757 | Raw Data ([4]; 0.02 nM): 41715 | Raw Data ([4]; 0.06 nM): 57093 | Raw Data ([4]; 0.17 nM): 84488 | Raw Data ([4]; 0.51 nM): 111988 | Raw Data ([4]; 1.5 nM): 135687 | Raw Data ([4]; 4.6 nM): 172692 | Raw Data ([4]; 13.9 nM): 209362 | Raw Data ([4]; 41.7 nM): 230085 | Raw Data ([4]; 125 nM): 249665 | Raw Data ([4]; 375 nM): 234176 | Raw Data ([4]; high concentration, 0.001 uM): 16366 | Raw Data ([4]; high concentration, 0.003 uM): 23261 | Raw Data ([4]; high concentration, 0.008 uM): 29739 | Raw Data ([4]; high concentration, 0.023 uM): 47935 | Raw Data ([4]; high concentration, 0.1 uM): 67642 | Raw Data ([4]; high concentration, 0.2 uM): 88410 | Raw Data ([4]; high concentration, 0.6 uM): 101987 | Raw Data ([4]; high concentration, 1.9 uM): 118822 | Raw Data ([4]; high concentration, 5.6 uM): 118686 | Raw Data ([4]; high concentration, 16.7 uM): 130064 | Raw Data ([4]; high concentration, 50 uM): 122799
